Data reported in patent US20180237502A1.

B1: murine monoclonal antibody 8C4 (antibody, V domains shown)
VH: EVQLQESGPELKKPGETVKISCKASGYTFTTYGMSWVKQAPGKGLKWMGRINTYSGVPTYADEFKGRFAFSLENSASTAYLQINNLKNEDTATYFCARGDGGHWFANWGQGTLVTVSA
VL: DIQMTQSPSSLSASLGGKVTITCKASQDINKNIAWYQHKPGKGPRLLIWYKSALQPGIPSRFSGSGSGRDYSFSISNLEPEDIATYSCLQYDNLPPTFGGGTKLEIKR
B2: murine monoclonal antibody 16G8 (antibody, V domains shown)
VH: EVQLQESGPGLVKPGASVKISCKASGYSFTGYYMNWVKQSPEKSLEWIGEINPSTGGTTYNQKFKAKATLTVDKSSSTAYMQLKSLTSEDSAVYYCVRYSHYYGSGSWYFDVWGTGTTVTVSS
VL: DIQMTQSPASLSASVGETVTITCRASENIYSNLAWYQQKQGKSPQLLVNAATNLADGVPSRFSGSGSGTQFSLKINSLQPEDFGSYYCQHFYVTPYMFGSGTKLEIKR
B3: murine monoclonal antibody 2D8 (antibody, V domains shown)
VH: EVQLQESGGELVRPGTSVKISCKASGYTFTNFWLGWIKERPGHGLEWIGDIYPGGHYTNYNENFKGKATLTADTSSNTAYMQVSSLTSEDSAVYFCFTQYYDMDYWGQGTSVTVSS
VL: not shown
B4: murine monoclonal antibody 17C6 (antibody, V domains shown)
VH: EVQLQESGPGLVQPSQSLSITCTVSGFSLTSYGVHWVRQSPGKGLEWLGVIWSGGSTDYNAAFISRLSISKDNSKSQVFFKMNSLQADDTAIYYCARNWFDYDNYYSMDYWGQGTSVTVSS
VL: DIQMTQTTSSLSASLGDRVTISCRASQDISNYLNWYQQKPDGTVKLLIYYTSRLHSGVPSRFSGSGSGTDFSLTISNQEPEDIATYYCQQYSNLPWTFGGGTKLEIKR
B5: murine monoclonal antibody 21B2 (antibody, V domains shown)
VH: EVQLQESGAELVRPGASVTLSCKTSGYTFTDYEMHWVKQTPVHGLEWIGAIDPETGGTAYNQKFKGKATLTADKSSSTAYMELSRLTSEDSAVYYCTGNYATDYWGQGTSVTVSS
VL: DIVMSQSPSSLAVSAGEKVTMSCKSSQSLFNSRSRKNYLAWYQLKPGQSPKLLIYWASTRESGVPDRFTGSGSGTDFTLTISSVQAEDLAVYYCKQSNYLWTFGGGTKLEIKR

Molecular target: SUDV GPddmuc (Sudan virus (SUDV)), Q66814
Settings: remark: other sources report otherwise

| Binder | EC50 |
| --- | --- |
| B1 | 0.06 µg/mL |
| B2 | 0.22 µg/mL |
| B3 | > 10 µg/mL |
| B4 | 0.03 µg/mL |

Molecular target: EBOV GPddmuc (Ebola virus (EBOV)), Q05320
Settings: remark: other sources report otherwise

| Binder | EC50 |
| --- | --- |
| B1 | 0.21 µg/mL |
| B2 | 1.23 µg/mL |
| B5 | > 10 µg/mL |
| B3 | 26.2 µg/mL |
| B4 | 0.03 µg/mL |

Molecular target: MARV GPddmuc (Marburg virus (MARV)), P35253
Settings: remark: other sources report otherwise

| Binder | EC50 |
| --- | --- |
| B5 | 0.0307 µg/mL |
| B3 | 0.0573 µg/mL |
